Results from publication PMC5691081.

Target: GST-DIAPH3-NT
Assay: GST pull-down with immunoblot quantification
Conditions: n = 3, parent: est. 1.0, read off a plot

Substance	ratio to parent	ratio to parent (p = 0.0072 vs wt)
MBP-anillin (1–151) wild type (from UniProt Q9NQW6) K38A; R39A	0.94	
MBP-anillin (1–151) wild type (from UniProt Q9NQW6) P43A; L44A	0.38	
MBP-anillin (1–151) wild type (from UniProt Q9NQW6) Q42A	0.82	
MBP-anillin (1–151) wild type (from UniProt Q9NQW6) R41A	0.59	
MBP-anillin (1–151) wild type (from UniProt Q9NQW6) R41A; Q42A; P43A; L44A		0.03
